The DeepSol protein solubility set

Assay: soluble on expression in E. coli; label from the status in PepcDB or PDB records

Row | Sequence | soluble on expression in E. coli
1 | MGSDKIHHHHHHMKPEAYPHPVKVVELVETHISWVLLTGSYAYKLKKAVHLDFVDATTLKQRLHFCQEELRLNRRLAPDLYLGVTRILESVDGAKVLDENFELNDPSTKGVVDVAVKMRQFPVSRLLSVYLSDGVLKTESLKRLAFELAGFHLSVKTASADGDFGGFDAVINPVHANLRVLDQLTLTEPLELWLEEHRAWIKSIQPELAFRFKQRLNAGAIRECHGDLHVGNIHLNNDESLEVFDAIDFNPSLRWIDPISEMAFLVMDFEVHDHQGDAMVILNEWLEHTGDYKALDLWPWYSAYRALVRAKVSGLQWQQLCSQSQHHSVDQQHLQRLLKDLNLYIQRAREVQQTKSAGIVLMHGLSGSGKSFLSEQLYQQLPAVRLRSDIERQRAFGRRPLHKLLGFEKGSMTSVGIKPLFQGDPYRPEVTQWLFDQCLPALTQSCLSSGYTTIVDATFLRERERQRMFVLARQQGCPIAIVACECSDFTAQERIATRMGIGTDPSEADLSVRELQKAWIEPLTTDEQDLTVRFTEKTPISIGLERLRVLLNP | not soluble
2 | MSDSDAMTDPNAVSYSNAIVVLCTAPDEASAQNLAAQVLGEKLAACVTLLPGATSLYYWEGKLEQEYEVQLLFKSNTDHQQALLTYIKQHHPYQTPELLVLPVRDGDKDYLSWLNASLL | not soluble
3 | MKYKDLRDFIAMLEQQGKLKRVAHPVSPHLEMTEIADRVLRAEGPALLFENPVKPDGTRYDYPVLANLFGTPERVAMGMGADSVSKLREIGQTLAYLKEPEPPKGIKDAFSKLPLLKDIWSMAPNVVKNAPCQEIVWEGEDVDLYQLPIQHCWPEDVAPLVTWGLTVTRGPHKKRQNLGIYRQQLIGKNKLVMRWLSHRGGALDYQEFRKLNPDTPYPVAVVLGCDPSTILGAVTPVPDTLSEYQFAGLLRGSRTELVKCIGSDLQVPARAEIVLEGVIHPNETALEGPYGDHTGYYNEQGHFPVFTVERITMRENPIYHSTYTGKPPDEPAVLGVALNEVFVPLLQKQFSEITDFYLPPEGCSYRMAVVSMKKQYAGHAKRVMTGCWSFLRQFMYTKFIIVVDDDVNVRDWKEVIWAVTTRMDPVRDTVLVENTPIDYLDFASPVSGLGGKMGLDATSKWPGETDREWGRVIKKDPAVTVKIDGIWGKLGLLEHHHHHH | not soluble
4 | MNILVTGAKGFVGRNLCAQLNNIKNGKARCYGDLKIEEVFEYDIDSTSEQLDAWCQKADFVFNLAGVNRPKENVEFMKGNFGFASTLLDTLKKHHNTCPVMLSSSAQASLTGRFGNSEYGRSKKAGEDLFLQYGKDTGAKVLVYRFPNLYGKWCRPNYNSAVATFCNNIANDLPIQVSDSSVVLELLYIDDLVDEMIHALKGEEHHCEFEGLDVHPLVDGRYCYCPVTHKVTLGEIVDLLHQFAEMPKTLMIPEIPSDSFAKRLYSTYLSYLPKEKAIFDLKMNVDQRGSFTELVHTLNCGQVSINISKPGITKGEHWHNTKWEQFIVVSGHGLIQLRKEGTDEVLNYEVSGDKIQSVIMLPGYAHNIINLSDTEDLVTVMYCNEIFNPDKPDTYFDKVKK | not soluble
5 | MIRAFLVVALASVAVFSAPIPEVPQNFDDIPAEYKGLIPAEVAEHLKAITAEEKAALKELAQNHKEYKTEEEFKAALKEKSPSLYEKAGKLEALLTAKFEKLDATAQALVKKIIAKGRELHQQYLAGDKPTLDSLKELAKGYIAEYKALSDDAKATITAEFPILTGFFQNEKIQAIVGQYVN | not soluble
6 | SLNVLCNNPHTADCNNDAQVDRYFREGTTCLMSPACTSEGYASQHECQQACFVGGEDHSSEMHSSCLGDPPTSCAEGTDITYYDSDSKTCKVLAASCPSGENTFESEVECQVACGAPIEG | soluble
7 | SNAMQAIRSILVVIEPDQLEGLALKRAQLIAGVTQSHLHLLVCEKRRDHSAALNDLAQELREEGYSVSTNQAWKDSLHQTIIAEQQAEGCGLIIKQHFPDNPLKKAILTPDDWKLLRFAPCPVLMTKTARPWTGGKILAAVDVGNNDGEHRSLHAGIISHAYDIAGLAKATLHVISAHPSPMLSSADPTFQLSETIEARYREACRTFQAEYGFSDEQLHIEEGPADVLIPRTAQKLDAVVTVIGTVARTGLSGALIGNTAEVVLDTLESDVLVLKPDDIIAHLEELASKE | soluble
8 | MSLNPKQVSQKLANKPKDRPIAFVSKPDSLTQCLTPVFTNSEGYVSVSDCEEAIDARYDVFSRIAWKLRDGWVCLSAENEKYNQGKRLILRPCVIDDKTQSFTIKDNMLYTPDLRFVVRIANGFLTLQKSQSKGAQSNLILHNMQEWLDTIATPAPLMQKGFIAWKFISPQGFDVYYLRNNESIKNDPQELYFNLENGIIAQYDSASAKMFCLTSKQNAKQDWNWASWEECLQQNLRENKAAPSKLNAQNWKLFMFADNDSAMLKDYLGNFLRVTKYGSNWGVPYTAKADYLAKDTNEGQTSYFQFRHDMQDWERFKNANLSDSLPTCPANGSYAKNLKASVKLPPSFVLTQEWKKRLWQIATTTDGVLERAGDCGVCLLHSYQMIAEMNEYTATPLESGGFFFDTAFGRNPFTSFRARYPMLAASLEQYRASNTPPGLSRSAVFAYAAQMYRAIALSLFPGHFWLSSEFATSDVTIRSALRDLFQQPAGTLWVVQMYYVARDGSFNGHGMPVLRTGDGIQFIPTNLTNMNYEGYERALSNSFAHNLREAYNVVTRNGTLNLYMLYSLRLREIYPNPINAFVSNNNCSGEGEDRRGTRNMPLSRFINQCASGRCVLQEGHHHHHH | not soluble
9 | SNDAGAKTENTVDASPTPTNTPTDGDGDSAEEPVENTPAEPEPRPTPVEPEAMKTSDKAGAIAAAQYFVEVIEHSMHTSTTDLLEKYSYEKCSMCNEYKRTIAKRKDNGILVTNSQYEIKDLGPASLWGKKQLIWEVMLNLSVKEEYENFDESYTTEHSLLFYVTYLPDGWVLTEVTPASKK | not soluble
10 | SMRTAQEVETYRRSKEITVRGHNCPKPVLNFYEANFPANVMDVIARQNFTEPTAIQAQGWPVALSGLDMVGVAQTGSGKTLSYLLPAIVHINHQPFLERGDGPICLVLAPTRELAQQVQQVAAEYCRACRLKSTCIYGGAPKGPQIRDLERGVEICIATPGRLIDFLECGKTNLRRTTYLVLDEADRMLDMGFEPQIRKIVDQIRPDRQTLMWSATWPKEVRQLAEDFLKDYIHINIGALEL | soluble
11 | MNLRGILPFAHDTLRKVVRSGDYVVDATCGNGHDTLLLAELVGINGHVLGFDIQQLAIDATNTRLENAGVSSQVELVCASHARIPEYTSKPVRAAIFNLGYLPGGDKEITTTADSTLESIGHLMELLEVGGVIILVIYHGHPAGKQEKDAVMTFCEAIPQQDFHVLSYNFINQKNDAPFVIIIEKRKPRQSLEHHHHHH | soluble
12 | GMATNSSTEQSLTKKVWNLATTLAGQGIGFTDYITQLTYLLFLKMDAENVEMFGEESAIPTGYQWADLIAFDGLDLVKQYEETLKLLSELDNLIGTIYTKAQNKIDKPVYLKKVITMIDEEQWLIMDGDVKGAIYESILEKNGQDKKSGAGQYFTPRPLIQAMVDCINPQMGETVCDPACGTGGFLLTAYDYMKGQSASKEKRDFLRDKALHGVDNTPLVVTLASMNLYLHGIGTDRSPIVCEDSLEKEPSTLVDVILANPPFGTRPAGSVDINRPDFYVETKNNQLNFLQHMMLMLKTGGRAAVVLPDNVLFEAGAGETIRKRLLQDFNLHTILRLPTGIFYAQGVKANVLFFSKGQPTKEIWFYDYRTDIKHTLATNKLERHHLDDFVSCYNNRVEIYDAENNPQGRWRKYPVDEIIARDKTSLDITWIKPGGEVDDRSLAEL | soluble
13 | MGSDKIHHHHHHMRDMCSISGIIVKDNQISAKYSIDMMKILKHRGRDNSGLLLDDEVIYFNDFEDVEDLEEEMIGNLSLAHNRLAIVGRYGVQPIPNEDETIWLVCNGEIYNYIELREYLKQNHEFRTDSDNEVIIHLYEEEKLEELDGDYAFAIYDKSKNVVRLARDMFGVKPLFYVDRDKYFAFASERKALWHLLINIDGCERDLDELNSKIKTLKPNSQLIYYLDDNRFEIIEGFKKLELNYMKERSYEEAKEYLDRALKNSVLKRVRGLDKVGIICSGGVDSSLIAKLASLYCEVILYAVGTENSEDLIYAERLAKDLNLKLRKKIISEEEYEEYVFKVAKAIDEVDLMKIGVGIPIYVASEMANEDGLKVVLSGQGADELFGGYARHERIYRERGEEELKKELLKDVYNLYKVNLERDDHCTMANGVELRVPFLDEEVVEIALSIPIEYKMSELSNRPYAESNISLKSEPINGLKNTNLNIKCVRSVRKKILRDVASQYLPDYIAYRPKKAAQYGSGGEKMIYKVAKKYGFSKKRINEFLDMLKRKIVSEF | not soluble
14 | MCLILFALDAHPRYRLVLAANRDEFYARPTAPAAFWDDAPQVLAGRDLTAGGTWCGVTRDGRIAAVTNYRDPGAHRVGARSRGELVAGFLGGDEAPSRWLEHLQRNGHDYNGFNLIFGDGNGLHYHSNRGAAASPLSPGIHGLSNHLLDTPWPKVARGRDALARLLATADEPAVDDLFAILANRTPAPDHLLPDTGVSLDWERLLSPLFITSPTYGTRSSTVILVDRSGQCTFVERSYNGAADHPRTVEYRFEVITLEHHHHHH | not soluble
15 | MGSDKIHHHHHHMCYNNSMNERYIRFNPNIAKQKPSNKDKCPFCDKSQLGKILDVKDDMIWVENKYPTLEETYQTLVIESNDHNGDISVYSESKMRQLLDYLLSKWQLMEESGHYRSVVLYRNFGPLSGGSLRHPHSQIVGLKNVDAYETLNLDWFDGIEVCSETSQQAEISIANRPMLDFTEFTIKVSKLENAILIADSLPILCHYILNEFLGGRCKSYNLFFYKHDGGLICKIVPRFIVSPYQIGYAIHQVNLPDELEKIKEALRAKYYL | not soluble
16 | MFQQLSARLQEAIGRLRGRGRITEEDLKATLREIRRALMDADVNLEVARDFVERVREEALGKQVLESLTPAEVILATVYEALKEALGGEARLPVLKDRNLWFLVGLQGSGKTTTAAKLALYYKGKGRRPLLVAADTQRPAAREQLRLLGEKVGVPVLEVMDGESPESIRRRVEEKARLEARDLILVDTAGRLQIDEPLMGELARLKEVLGPDEVLLVLDAMTGQEALSVARAFDEKVGVTGLVLTKLDGDARGGAALSARHVTGKPIYFAGVSEKPEGLEPFYPERLAGRILGMGDIESILEKVKGLEEYDKIQKKMEDVMEGKGKLTLRDVYAQIIALRKMGPLSKVLQHIPGLGIMLPTPSEDQLKIGEEKIRRWLAALNSMTYKELENPNIIDKSRMRRIAEGSGLEVEEVRELLEWYNNMNRLLKMVK | soluble
17 | MAKVLCVLYDDPVDGYPKTYARDDLPKIDHYPGGQTLPTPKAIDFTPGQLLGSVSGELGLRKYLESNGHTLVVTSDKDGPDSVFERELVDADVVISQPFWPAYLTPERIAKAKNLKLALTAGIGSDHVDLQSAIDRNVTVAEVTYCNSISVAEHVVMMILSLVRNYLPSHEWARKGGWNIADCVSHAYDLEAMHVGTVAAGRIGLAVLRRLAPFDVHLHYTDRHRLPESVEKELNLTWHATREDMYPVCDVVTLNCPLHPETEHMINDETLKLFKRGAYIVNTARGKLCDRDAVARALESGRLAGYAGDVWFPQPAPKDHPWRTMPYNGMTPHISGTTLTAQARYAAGTREILECFFEGRPIRDEYLIVQGGALAGTGAHSYSKGNATGGSEEAAKFKKAV | soluble
18 | MAHHHHHHMLPAGLTLNTLTPLAQIPVELQRLARCAINAHRNAYCPYSKFAVGAALLHKDLKITAGCNYENCTLKGCCAELCAIVKGNSEGRRTATAVAVYGCSKAPDVMNLPPPDTVTPPCGFCRQSLVEVADLSNNYEDFLVVLVTLDKERVKLVKLCDIIPLKFGPSNIGMDLSQLAKDVELGNEDEKK | not soluble
